“Also recorded” adds a separate entry of the source.
Columns and labels:
[1] = biological target: T1, human MerTK (Homo sapiens, UniProt Q12866); assay: Test 9: antigen binding activity of humanized antibodies by ELISA; settings: compared with the original human chimeric antibody (m20A77_hIgG1LALA or 24A1_hIgG1LALA, respectively); FIG. 21
T1 sequence (Q12866 21-999): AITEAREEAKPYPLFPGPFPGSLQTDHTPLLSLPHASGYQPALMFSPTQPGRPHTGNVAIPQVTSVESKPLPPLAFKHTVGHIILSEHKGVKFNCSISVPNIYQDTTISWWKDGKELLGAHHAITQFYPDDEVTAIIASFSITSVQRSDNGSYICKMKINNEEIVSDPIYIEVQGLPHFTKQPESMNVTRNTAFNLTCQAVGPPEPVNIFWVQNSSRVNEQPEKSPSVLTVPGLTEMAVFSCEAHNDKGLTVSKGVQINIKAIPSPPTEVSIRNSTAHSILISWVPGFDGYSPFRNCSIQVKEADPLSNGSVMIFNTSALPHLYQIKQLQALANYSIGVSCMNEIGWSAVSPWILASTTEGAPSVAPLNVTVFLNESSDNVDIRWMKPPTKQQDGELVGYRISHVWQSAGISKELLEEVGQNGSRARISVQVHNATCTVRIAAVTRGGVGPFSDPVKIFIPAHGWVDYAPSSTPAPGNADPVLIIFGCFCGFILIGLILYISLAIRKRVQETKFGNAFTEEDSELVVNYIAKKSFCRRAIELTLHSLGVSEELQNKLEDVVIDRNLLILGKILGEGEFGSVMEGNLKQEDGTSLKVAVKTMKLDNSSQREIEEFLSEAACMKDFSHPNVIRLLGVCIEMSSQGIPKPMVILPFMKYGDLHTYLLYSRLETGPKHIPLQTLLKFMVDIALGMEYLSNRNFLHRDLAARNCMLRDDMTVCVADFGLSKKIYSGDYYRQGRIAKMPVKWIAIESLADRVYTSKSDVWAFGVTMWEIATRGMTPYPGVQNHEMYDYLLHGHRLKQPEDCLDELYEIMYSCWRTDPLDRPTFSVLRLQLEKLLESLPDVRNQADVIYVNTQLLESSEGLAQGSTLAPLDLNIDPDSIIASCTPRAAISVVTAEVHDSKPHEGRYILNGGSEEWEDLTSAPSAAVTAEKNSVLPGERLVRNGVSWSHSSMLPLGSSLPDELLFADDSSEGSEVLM
Procedure: (§1) The ELISA was performed according to the procedures indicated below. First, the respective antigens were added to an ELISA plate (Nunc) at a concentration of 5 μg/ml and immobilized overnight at room temperature. After removing the immobilization solution, 1% BSA/PBS was added for blocking reaction and left to stand at room temperature for 1 hour. After the blocking, the plate was washed with 0.05% Tween 20/PBS and an antibody solution was added for primary reaction at room temperature for 1 hour. After washing, an HRP-labelled antibody (GE Healthcare) was added for secondary reaction for 1 hour. After washing, a chromogenic substrate solution of TMB (Dako) was added for chromogenic reaction for 10 minutes, 1 N sulfuric acid was added to terminate the reaction and the absorbance was measured at 450 nm.
The prepared antibodies were checked for antigen binding activity by ELISA.

[2] = Test 8: toxic dose by in vivo ocular toxicity test, TB staining; set-up: species or system Balb/c mice; settings: 3 or 10 mg/kg intravenous twice a week, eyes removed day 30
Procedure: The ocular toxicity test was carried out using Balb/c mice. The mice intravenously received a solvent or “m20A77_mIgG1” at a dose of 3 or 10 mg/kg at a frequency of twice a week. At day 30 after the first administration, eyes were removed, fixed with a Karnovsky's fixative and then subjected to embedding in a resin, preparation of sections and TB staining carried out by Applied Medical Research Laboratory.

[3] = biological target: T2, binding of MerTK with TULP1 (Homo sapiens, UniProt Q12866); assay: Test 6: ligand binding inhibition ELISA, MerTK with TULP1; settings: human MerTK 5 μg/ml immobilized; biotinylated TULP1 40 nM; FIGS. 14 and 16
T2 construct: purchased R&D Systems
T2 sequence (Q12866 26-499 limits assumed): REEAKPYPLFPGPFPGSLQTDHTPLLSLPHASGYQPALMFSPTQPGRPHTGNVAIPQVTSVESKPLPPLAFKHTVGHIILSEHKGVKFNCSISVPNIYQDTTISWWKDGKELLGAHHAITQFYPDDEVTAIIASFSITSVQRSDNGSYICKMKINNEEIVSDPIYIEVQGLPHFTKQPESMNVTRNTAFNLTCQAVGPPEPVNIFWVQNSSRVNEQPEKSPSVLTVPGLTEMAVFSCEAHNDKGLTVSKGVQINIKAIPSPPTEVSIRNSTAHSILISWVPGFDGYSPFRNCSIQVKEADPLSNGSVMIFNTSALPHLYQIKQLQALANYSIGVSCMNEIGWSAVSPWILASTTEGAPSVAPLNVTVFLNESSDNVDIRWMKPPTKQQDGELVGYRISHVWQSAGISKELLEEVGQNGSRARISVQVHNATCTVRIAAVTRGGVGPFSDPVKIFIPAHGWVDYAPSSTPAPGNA
Procedure: (§2) “20A77” and “24A1” were evaluated for the ability to inhibit binding of MerTK with various ligands. The MerTK ligands used were human Gas6 (R&D Systems) and human TULP1 (abcam plc.) which were respectively biotinylated using “Biotin Labeling Kit-NH” (Dojindo Laboratories Co., Ltd.). […] TULP1 is a ligand correlated with ocular toxicity, and an antibody having an activity to inhibit binding of MerTK with TULP1 may have ocular toxicity. Thus, an antibody having high inhibitory activity of binding to Gas6 and low inhibitory activity of binding to TULP1 may be an efficacious anti-tumor agent having low ocular toxicity.
as §1, with “The ligand binding inhibition test” for “The ELISA”, “was carried out as” for “was performed according to the procedures”, “First, human MerTK (R&D Systems) was” for “First, the respective antigens were”, “hour. […]” for “hour. After washing, an HRP-labelled antibody (GE Healthcare) was added for secondary reaction for 1 hour.”, “for 20” for “for 10”

[4] = biological target: T1, human MerTK; assay: MerTK phosphorylation inhibition test in hMerTK-EL4 cells stimulated with human Gas6; format: cell-based; set-up: expressed in transfected cells; host or cells: mouse lymphoma cell line EL4 (hMerTK-EL4); settings: hMerTK-EL4, antibody 1 hour, then 200 nM human Gas6 for 10 minutes; phospho-Mer ELISA; FIG. 1
Procedure: On the basis of the procedures indicated below, the clones were evaluated for MerTK phosphorylation inhibitory activity. Higher activity means higher binding ability to MerTK.
The cells (hMerTK-EL4) stably expressing human MerTK were cultured in a “DMEM high glucose medium” (Thermo Fisher Scientific Inc.) containing 10% FBS. After the cultivation, the cells were washed in PBS, suspended in a serum-free medium, plated in a 96-well plate at 1×10^6 cells/well and incubated at 37° C. for 3 hours. After the incubation, the respective clones were added, the hMerTK-EL4 was allowed to react for 1 hour, stimulated with 200 nM human Gas6 (R&D Systems) for 10 minutes and centrifuged and collected. The collected hMerTK-EL4 was lysed in a cell lysis solution, and the level of the phosphorylated MerTK protein in the lysate was determined using “Human Phospho-Mer DuoSet IC ELISA” (R&D Systems). The cell lysis solution used contained 1% “IGEPAL CA-630” (SIGMA) and 1×concentration of “Halt Protease and Phosphatase Inhibitor Single-Use Inhibitor Cocktail” (Thermo Fisher Scientific Inc.) added to MilliQ water.

[5] = biological target: T3, binding of MerTK with Gas6 (Homo sapiens, UniProt Q12866); assay: Test 6: ligand binding inhibition ELISA, MerTK with Gas6; settings: human MerTK 5 μg/ml immobilized; biotinylated Gas6 10 nM; FIGS. 13 and 15
T3 construct: purchased R&D Systems
T3 sequence (Q12866 26-499 limits assumed): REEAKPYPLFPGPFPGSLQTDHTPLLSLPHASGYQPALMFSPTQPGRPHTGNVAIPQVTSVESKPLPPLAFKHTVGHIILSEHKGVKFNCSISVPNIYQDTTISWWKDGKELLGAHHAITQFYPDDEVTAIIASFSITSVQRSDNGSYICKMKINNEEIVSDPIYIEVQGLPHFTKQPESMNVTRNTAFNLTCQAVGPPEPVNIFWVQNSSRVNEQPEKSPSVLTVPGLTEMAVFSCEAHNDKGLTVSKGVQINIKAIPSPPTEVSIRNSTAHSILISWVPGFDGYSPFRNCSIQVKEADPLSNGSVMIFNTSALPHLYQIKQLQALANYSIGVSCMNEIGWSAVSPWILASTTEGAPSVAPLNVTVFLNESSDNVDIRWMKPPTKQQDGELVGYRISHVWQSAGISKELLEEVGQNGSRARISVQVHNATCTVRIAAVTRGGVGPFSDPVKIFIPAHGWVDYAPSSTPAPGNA
Procedure: as §2
as §1, with “The ligand binding inhibition test” for “The ELISA”, “was carried out as” for “was performed according to the procedures”, “First, human MerTK (R&D Systems) was” for “First, the respective antigens were”, “hour. […]” for “hour. After washing, an HRP-labelled antibody (GE Healthcare) was added for secondary reaction for 1 hour.”, “for 20” for “for 10”

B1: hz20A77_hIgG1LALA: humanized antibody derived from m20A77 with human IgG1 constant region having LALA sequence (antibody, V domains shown)
VH: QVQLVQSGAEVKKPGSSVKVSCKASGNTFTSYWMHWVRQAPGQGLEWIGNINPSSGGTNYNEKFKSRVTITVDKSTSTAYMELSSLRSEDTAVYYCARLNYYGFDGFAFWGQGTLVTVSS
VL: DIQMTQSPSSLSASVGDRVTITCKASQDINSYLSWFQQKPGKAPKTLIYRANRLVSGVPSRFSGSGSGTDYTLTISSLQPEDFATYYCLQYDEFPFTFGGGTKVEIK
- antigen binding activity (reactivity) in ELISA [1]: reactivity similar to or higher than original human chimeric antibodies

B2: hz24A1_hIgG1LALA: humanized antibody derived from 24A1 with human IgG1 constant region having LALA sequence (antibody, V domains shown)
VH: EVQLVESGGGLVQPGGSLRLSCAASGFTFNVYDMHWVRQAPGKGLEWVARIRSKSSNYATNYADSVKDRFTISRDDAKNSLYLQMNSLRAEDTAVYYCVRDGSHYYYALDYWGQGTTVTVSS
VL: DIQMTQSPSSLSASVGDRVTITCRASQDINNYLNWYQQKPGKAPKLLIYYSSRLHSGVPSRFSGSGSGTDYTLTISSLQPEDFATYYCQQGKMFPWTFGGGTKVEIK
- antigen binding activity (reactivity) in ELISA [1]: reactivity similar to or higher than original human chimeric antibodies

B3: m20A77_mIgG1: mouse IgG1 antibody of m20A77 (antibody, V domains shown)
VH: QVQLQQPGTELVKPGASVKLSCRASGNTFTSYWMHWVKQRPGQGLEWIGNINPSSGGTNYNEKFKSKATLTVDKSSSTAYMQLSSLTSEDSAVYYCARLNYYGFDGFAFWGQGTLVTVSA
VL: DIKMTQSPSSMYASLGERVTITCKASQDINSYLSWFQQKPGKSPKTLIYRANRLVSGVPSRFSGSGSGQDYSLTISSLEYEDMGIYYCLQYDEFPFTFGSGTKLEIK
- TB-positive granules (retinal pigment epithelium) ([2]; FIG. 19): no increase in TB-positive granules was observed
- abnormal shrinkage of the outer nuclear layer ([2]; FIG. 20): no abnormal shrinkage of the outer nuclear layer was observed

B4: 24A1: anti-MerTK mouse monoclonal antibody clone; VH SEQ ID NO: 9, VL SEQ ID NO: 13 (antibody, V domains shown)
VH: EVQLVESGGGLVQPKGSLKLSCAASGFTFNVYDMHWVRQAPGEGLEWVARIRSKSSNYATNYADSVKDRFTISRDDSQSMLYLQMNNLQTEDTAIYYCVRDGSHYYYALDYWGQGTSVTVSS
VL: DIQMTQTTSSLSASLGDRVTISCRASQDINNYLNWYQQKLDGTVKLLIYYSSRLHSGVPSRFSGSGSGTDYSLTISNLEQEDIATYFCQQGKMFPWTFGGGTKLEIK
- inhibition of binding of TULP1 with MerTK [3]: did not inhibit binding of TULP1 with MerTK
- MerTK phosphorylation inhibitory activity [4]: inhibited binding of Gas6 with MerTK and MerTK phosphorylation in a concentration dependent manner
- inhibition of binding of Gas6 with MerTK [5]: inhibited binding of Gas6 with MerTK; also recorded: strongly inhibited binding of Gas6 with MerTK

From patent US20250326862A1, “Antibody or Fragment Thereof Binding Specifically to Mertk, and Anti-Tumor Agent” (Chiome Bioscience Inc., priority 2021, published 2025)
